Experiment: yeast display, Sf9 membrane polyspecificity reagent, FACS + sequencing; frameworks hold sequencing errors
Procedure, shortened: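 Galactose induction of a Saccharomyces cerevisiae BJ5465 synthetic nanobody display library ran 36–48 hours. The cells were then stained for 1 hour at 4 °C with 10% biotinylated, detergent-solubilized Sf9 membrane reagent, pulled down on streptavidin microbeads and FACS-sorted into low and high (top ~1%) gates on expression and reagent-binding fluorescence. Labels for polyreactivity follow the gate of origin.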

| Sequence | polyreactivity (PSR sort gate) |
| --- | --- |
| QVQLVESGGGLVQAGGSLRLSCAASGSTFIVNAMGWYRQAPGKERELVAAITEDGDTTYYADSVKGRFTISRDHAKKTVYLQMNSLKPEDTAVYYCAARTYRGLADDYWGQGTQVTVSS | high polyreactivity |
| QVQLEESGGGLVQAGGSLRLSCAASGRIFRSYAMGWYRQAPGKERELVAAISQRGGRTYYADSVKGRFTISRDNAKNTVYLQMNSLKPEDTAVYYCAKSNPKLGYYYLQGDLYDYWGQGTQVTVSS | low polyreactivity |
| QVQLVESGGGLVQAGGSLSLSCAASGRTFLIYAMGWYRQAPGKERELVAAITSGDNTYYADSVKGRFTISRDNAKNTVYLQMNSLKPEDTAVYYCAAGGYVRNYYTYEHWGQGTQVTVSS | low polyreactivity |
| QVQLVESGGGLVQAGGSLRLSCAASGRTLRYNTKGWYRQAPGKERELVADISWTGGSTYYADSVKGRFTISRDNAKNTVYLQMNSLKPEDTAVYYCAADEWWYPWYDYWGQGTQVTVSS | high polyreactivity |
| QVQLVESGGGLVQAGASLRLICDASGSIFPYNAMGWYRQAPGKERELVAVITSSGGSTYYADSVKGRFTISRDNAKNTVYLQLNSLKPEDTAVYYCAVLNHRVDSVLTRYYYWGQGTQVTVSS | low polyreactivity |
| QVQLVESGGGLVQAGGSLRLSCAASGRIFRLYAMGWYRQAPGKERELVAAITSSGSSTYYADSVKGRFTISRDNAKNTVSLQMNSLKPEDTAVYYCNARYTYPYHFGYWGQGTQVTVSS | high polyreactivity |
| QVQLVESGGGLVQAGGSLRLSCAASGRTFYFYAMGWYRQAPGKERELVAAITFSGGSTYYADSVKGRFTISRDNAKNTVYLQMNSLKPEDTAVYYCIAVSTYKREYWGQGTQVTVSS | low polyreactivity |
| QVQLVDSGVGLVQAGGRLSLSCAASGLIFDFYAMGGYRQAPGKERELVATISWSGGTTSYADSVKGLFTISRDNAKNTVYIQMNSLKPEDTAVYYCAADGFQYTLGNYYWGQGTQVTLSS | high polyreactivity |
| QVQLVESGGGLVQAGGSLRLSCAASGFIFRWYAMGWYRQAPGKERELVAAISSGATTNYADSVKGRFTISRDNAKNTVYLQMNSLKPEDTAVYYCAAAHSYYGHYYYWGQGTQVTVSS | high polyreactivity |
| QVQLEESGGGLVQAGGSLRLSCAASGRIFYQNAMGWYRQAPGKERQLVADIASGGSTSYADSVKGRFTISRDNAKNTVYIQMNSLKPEDTAVYYCATAVLYGDGWYYYWGQGTQVTVSS | low polyreactivity |
| QVQLVESGGGLVQAGGSLRLSCAASGLTSVSNAMGWYRPAPGKERELVAAISSRGGITYYADSVKGRFTISRDNAKNTVYLQMNSLKPEDTAVYYCAKKTVQRGYYYWGQGTQVTVSS | high polyreactivity |
| QLQLVESGGGLVQAGGSLRLSCAASGSTFPTNAMGWYRQAPGKEMELVATITTGGSTYYADSVKGRFTISRDNAKNTVYLQMNCLKPEDTAVYYCNAEYVYLIFSVYLYDYDYWGQGTQVTVSS | low polyreactivity |
| QVQLVESGGGLVQAGGSLRLSCAASGSIFWDYAMGWYRQAPGKERELVAAISGSGTSTYYADSVKGRFTISRDNAKNTVYLQMNSLKPEDTAVYYCAARIWTGRGRKLGNGYDYWGQGTQVTVSS | low polyreactivity |
| QVQLVESGGGLVQAGGSLRLSCAASGSIYRDALGWYRQAPGKERELVAAINFNGGRTYYADSVKGRFTISRDNAKNTVYLQMNSLKPEDTAVYYCAAVRSSNQGGFDYWGQGTQVTVSS | high polyreactivity |
| QVQLEESGGGLVQAGGSLRLSCAASGSIFGQYAMGWYRQAPGKERELVAAISTRGGSTRYADSVKGRFTISRDNAKNTVYLQMNSLTPEGTAVYYCAARVPYIRHLAVDYWGQGTQVTVSS | high polyreactivity |
| QVQLVESGGGLVQAGGSLRLSCAASGRTFYIYAMGWYRQAPGKERELVAAITYGGGRTFYADSVKGRFTISRDYAKTTVYLQMISLKPEDTAVYYCAATDRGKRSTYDYWGQGTQVTVSS | high polyreactivity |
| QVQLVESGGGLVQAGGSLRLSCAASGSIFVGNAMGWYRQAPGKERELVAAINSGGSTYYADSVKGRFTISRDNAKNTVYLQMNSLKPEDTAVYYCAAEGTYSYYLYEYWGLGTQVTVSS | low polyreactivity |
| QVQLVESRGGLVQAGGSLRLTCAASGFIFKGYAMGWYRQEPGTERELVAAISYSGGNTYYADSVKGRFTISRDNAKNTVYLQMNSLKPEDTAVYYCAVRKRKVLGMYYWGQGTQVTVSS | high polyreactivity |
| QVQLVESGGGLVQAGGILRLSCAASGITFGRNAMGWYRQAPGKERELVAAITISGGGTYYADSVKGRFTISRDNAKNTVYLQMNSLKPEDTAVYYCAADRSTVWVHYPHAGGSWGHGTQVTVSS | high polyreactivity |
| QVQLVESGGGLVQAGGSLRLSCAASGSTYDPNAMGRYRQAPGKERELVAAISWSGGSTYYADSVKGRFTISRDNAKNTVYLQMYSLKPEDTAVSYCNAQFYDSYSYTNDYWGQGTLVTVSS | low polyreactivity |
| QVQLVESGGGLVQAGGSLRLTCAASGGTFVYNAMGWYRKAPGKERELVAAISRGGTRTYYADSVKGRFTISRDNAKNTVYLQMNSLKPEDTAVYYCNAEVNTNYRIADYDYWGQGTQVTVSS | high polyreactivity |
| QVQLVESGGGLVQAGGSLRLSCAASGSTFGVNAMGWYRPAPGKERELVAAISSSGSSTYADSVKGRFTISRDNAKNTVYLQMNSLKPEDTAVYYCNKTTLLTVEYDYWGQGTQVTVSS | low polyreactivity |

| Sequence | polyreactivity (PSR sort gate) |
| --- | --- |
| QVQLVESGGGLVQAGGSLRLSCAASGFIFDYYAMGWDRQAPGKESELVAAIRRSGGTTYYADSVKGRFTISRDNAKNTVYLLMNSLKPEDTAVYYCNVDSGEFDYVWVYTYDYWGQGTQVTVSS | low polyreactivity |
| QVQLVETGGALVQAGGSLRLSCAASGYTFYRYAMGWYRQATGKERELVAAISYSGGRTYYADSVKGRFTISCDIAKNTVYLQMNSLKPEDTAVYYCNARASYGHQGRLGYARLYYWGQGTQVTVSS | high polyreactivity |
| QVQLVESVGGLVQAGGSLRLSCAASGSTFADYVMGWYRQAPGKERELVAAITSSGGSTYYADSVNGRFTISRDNAKNTVYLQMNSLKPEDTAVYYCAAQQSPSVDYWGQGTQVTVSS | low polyreactivity |
| QVQLVESGGCLVQAGGSLRLSCAASGITFYVYAMGWYRQAPGKESELVASITSGGGSTDYADSVKGRVTISRDNAKNTVYLQMNSLKPEDTAVYYCAARYPLLNQLYDFDYWGQGTQVTVSS | low polyreactivity |
| QVQLVESAGGLVQAGGSLRLSCAASGRIFYYNAMGWYRQAPGKERELVAGITSRGGSTYADSVKGRFTISRDNAKNTVYLQMNSLKPEDTAVYYCAAVYRLWGKDYDYWGQGTQVTVSS | high polyreactivity |
| QVQLVESGGGLVQAGGSLRLSCAASGSTLTVNVMGWYRHAPGKEREFVAAINDSGSTYYADSVKGRFTISRDNAKNTVYLQMNSLKPEDTAVYYCATYYWVGLSLYDYWGQGTQVTVSS | low polyreactivity |
| QVQLVESGGGLVQAGGSLRLSCAASGSTLERYTMGWYRQAPGKERELVAAIRWSGTSTYYADSVKGRFTISRDNAKNTVYLQMKSLKPEDTAVYYCARVGFSRYYRTMYYWGQGTQVTVSS | high polyreactivity |
| QVQLVESGGGLVQAGGSLRLSCAASGSILGQNAMGWSRQAPGKEREWVAAIRSSGGSTYYADSVKGRFTISRDNAKNTVYLQMNSRNPEDTAVYYCADDYYTSADYVDYYYWGQGTQVTVSS | low polyreactivity |
| QVQLVESAGGLVQAGGSLRISCAASGRNFSTNAMGWYRQAPGKEMELVAAITSRGGSTYYADSVKGRFTISRDNAKNTVYLQMNSLIPEDPAVYYCAVDPLYYKTHYGTLGYYYWGQGTQVTVSS | low polyreactivity |
| QVQLVETGGVLVQAGGSLRLSCAASGRTFVYNAMGWYRHAPGKEREFVAAIDGGTGSTYYADSVKGRFTISRDNAKNTVYLQMNSLKPEDTAVYYCAVETYGGGYPVTYDYWGQGTQVTVSS | low polyreactivity |
| QVQLVESGGGLVQAGGSLRLSCAASVSIFSSYAMGWYRQAPGKERELVAAISRSGGRTYYADSVKGRFTISRDNAKNTVFLQMNSLKPEDTAVYYCNAYAQVSYGTYDYWGQGTQVTVSS | high polyreactivity |
| QVQLVESGGGLVQAGGSLRLSCAASGSTFPRYAMGWYRQAPGKERELVADISSGGSTYYADSVKGRFTISRDNAKNTVYLQMNSLKPEDTAVYYCNARRSRSRYDYWGQGTQVTVSS | high polyreactivity |
| QVQLVESGGGLVQAGGSLRLSCAASGIIFSTYAMGWYRQAPGKERELDATITSSGSNTYYADSVKGRFTISRDNAKNTVYLQMNSLKPEDTAVYYCNAVASHYDFGYWGQGTQVTVSS | high polyreactivity |
| QVQLVESGGGLVQAGGSLRLSCAASGSIFKGYTMGWYRQAPGKEREFVASISRRGGSTYYADSVKGRFTISRDNAKNTVYLQMNSLKPDDTAVYYCAKDYGKAYDYWGQGTQVTVSS | high polyreactivity |
| QVQLVESGGGLVQARGSLRLSCAASGRIFSYYAMGWYRQAPGKERELVATISKSGGSTYYADSVKGRFTISRDNAKNTVYLQMNSLKPEDTALYYCAAVGPYRWYDYWGQGTQVTVSS | high polyreactivity |
| QVQLVESGGGLVQAGGSLRLSCAASGFIFSIYAMGWYRQAPGKERELVAGIDNGGGTYYADSVKGRFTISRDNAKNTVYLQMNSLKPEDTAVYYCDLGSTTMDYWGQGTQVTVSS | low polyreactivity |
| QVQLVDSGGGLVQAGGSLRLSCAASGSTFAPYAMGWSRQAPGKERELVAAISWGGGSTYYADSVKGRFTISRDNAKNTVYLQMNSLKPEDTAVYYCAADYAEYSAEWYEDWGQGTQVTVSS | high polyreactivity |
| QVQLVESGGGLVQAGGSLRLSCAASGYIYLPYAMGWYRQAPGKERELVAAIRWSGGSTYYADSVKGRFTISRDNAKNTVYLQMNSLKPEDTAVYYCAAYYVARDRRYPKAYSYEYWGQGTQVTVSS | high polyreactivity |
| QVQLVESGGGLVQAGGSLRLSCAASGRTFSVYAMGWYRQATGKEREFVAAISFSGGRTYYADSVKGRFTISRDNAKNTVYLQINSLKPEDTAVYYCAKRGSYYNPMGYWGQGTQVTVSS | high polyreactivity |
| QVQLVESGGGLVQAGGSLRLSCAASGRIFSHYAMGWYRQAPGKERELVAAITWSGGRTYYADSVKGRFTISRDNAKNTVYLQMNSLKPEDTAVYYSAADREARYPVEYGYWGQGTQVTVSS | low polyreactivity |
| QVQLVESVGGLVQAGGSLRLSCAASGSTFGYYAMGWYRQAPGKERELVATITWSGGSTNYGDSVKGRFTISRDNEKNTVYLQMKSLKPEDTAVYYCAADLKYWYFGLAFIEVDYWGQGTQVTVSS | low polyreactivity |
